{"source": "paper PMC3429349", "about": "(Science (New York, N.Y.), 2009)", "target": "the molecule itself", "data": [{"protein": "HSF1 K80Q (natural protein, human, UniProt Q00613 1-529, looked up) MDLPVGPGAAGPSNVPAFLTKLWTLVSDPDTDALICWSPSGNSFHVFDQGQFAKEVLPKYFKHNNMASFVRQLNMYGFRQVVHIEQGGLVKPERDDTEFQHPCFLRGQEQLLENIKRKVTSVSTLKSEDIKIRQDSVTKLLTDVQLMKGKQECMDSKLLAMKHENEALWREVASLRQKHAQQQKVVNKLIQFLISLVQSNRILGVKRKIPLMLNDSGSAHSMPKYSRQFSLEHVHGSGPYSAPSPAYSSSSLYAPDAVASSGPIISDITELAPASPMASPGGSIDERPLSSSPLVRVKEEPPSPPQSPRVEEASPGRPSSVDTLLSPTALIDSILRESEPAPASVTALTDARGHTDTEGRPPSPPPTSTPEKCLSVACLDKNELSDHLDAMDSNLDNLQTMLSSHGFSVDTSALLDLFSPSVTVPDMSLPDLDSSLASIQELLSPQEPPRPPEAENSSPDSGKQLVHYTAQPLFLLDPGSVDTGSNDLPVLFELGEGSYFSEGDGFAEDPTISLLTGSEPPKAKDPTVS", "values": [{"measurement": "stoichiometry N", "value": 3}]}]}
